The values below come from paper PMC3121171 (Forum on immunopathological diseases and therapeutics, 2011).

In the test the target is T1, Purified recombinant human GRK2 (G protein-coupled receptor kinase 2) (human, UniProt P25098 1-689).
T1 sequence (looked up): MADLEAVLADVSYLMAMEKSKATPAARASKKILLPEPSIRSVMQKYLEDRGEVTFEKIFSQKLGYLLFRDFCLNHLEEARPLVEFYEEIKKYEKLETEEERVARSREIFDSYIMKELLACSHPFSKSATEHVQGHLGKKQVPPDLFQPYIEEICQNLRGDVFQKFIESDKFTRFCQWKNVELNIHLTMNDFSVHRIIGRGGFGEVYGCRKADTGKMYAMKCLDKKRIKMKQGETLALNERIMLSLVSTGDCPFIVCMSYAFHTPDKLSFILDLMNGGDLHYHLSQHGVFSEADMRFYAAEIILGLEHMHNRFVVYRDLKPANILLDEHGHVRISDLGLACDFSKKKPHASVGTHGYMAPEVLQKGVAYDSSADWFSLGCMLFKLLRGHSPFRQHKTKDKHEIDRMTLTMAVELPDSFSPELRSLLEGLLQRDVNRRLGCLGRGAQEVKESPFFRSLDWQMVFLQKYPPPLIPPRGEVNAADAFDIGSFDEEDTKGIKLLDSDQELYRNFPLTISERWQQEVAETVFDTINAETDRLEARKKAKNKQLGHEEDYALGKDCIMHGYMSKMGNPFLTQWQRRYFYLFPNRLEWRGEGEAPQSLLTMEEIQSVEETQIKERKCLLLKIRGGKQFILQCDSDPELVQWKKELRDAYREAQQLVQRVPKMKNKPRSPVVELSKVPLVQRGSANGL
Briefly: pull-down.

B1: His-tagged human RKIP-1/PEBP-1 (Raf kinase inhibitor protein) (natural protein)
chain: MPVDLSKWSGPLSLQEVDEQPQHPLHVTYAGAAVDELGKVLTPTQVKNRPTSISWDGLDSGKLYTLVLTDPDAPSRKDPKYREWHHFLVVNMKGNDISSGTVLSDYVGSGPPKGTGLHRYVWLVYEQDRPLKCDEPILSNRSGDHRGKFKVASFRKKYELRAPVAGTCYQAEWDDYVPKLYEQLSGK
Turning to B1, the binding result was “binds”.
